Reference: patent publication EP3085709A1 (Genor Biopharma Co., Ltd, dated 2016)
Changes are numbered by the printed parent chain. In names and notes the source's numbering stands.

T1: recombinant human RANKL (soluble, Gly136-Asp317, N-terminal 10 His, expressed in CHO cells) (human) (UniProt O14788)
T1 sequence: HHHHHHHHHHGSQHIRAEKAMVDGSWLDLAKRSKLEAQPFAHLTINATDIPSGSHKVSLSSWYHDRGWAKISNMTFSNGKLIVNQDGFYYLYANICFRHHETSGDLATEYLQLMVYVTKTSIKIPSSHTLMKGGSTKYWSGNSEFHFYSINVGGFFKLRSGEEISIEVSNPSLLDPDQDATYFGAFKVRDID

T2: RANK receptor on RAW264.7 cells (mouse (RAW264.7 cells), UniProt O35305 31-625)
T2 sequence (looked up): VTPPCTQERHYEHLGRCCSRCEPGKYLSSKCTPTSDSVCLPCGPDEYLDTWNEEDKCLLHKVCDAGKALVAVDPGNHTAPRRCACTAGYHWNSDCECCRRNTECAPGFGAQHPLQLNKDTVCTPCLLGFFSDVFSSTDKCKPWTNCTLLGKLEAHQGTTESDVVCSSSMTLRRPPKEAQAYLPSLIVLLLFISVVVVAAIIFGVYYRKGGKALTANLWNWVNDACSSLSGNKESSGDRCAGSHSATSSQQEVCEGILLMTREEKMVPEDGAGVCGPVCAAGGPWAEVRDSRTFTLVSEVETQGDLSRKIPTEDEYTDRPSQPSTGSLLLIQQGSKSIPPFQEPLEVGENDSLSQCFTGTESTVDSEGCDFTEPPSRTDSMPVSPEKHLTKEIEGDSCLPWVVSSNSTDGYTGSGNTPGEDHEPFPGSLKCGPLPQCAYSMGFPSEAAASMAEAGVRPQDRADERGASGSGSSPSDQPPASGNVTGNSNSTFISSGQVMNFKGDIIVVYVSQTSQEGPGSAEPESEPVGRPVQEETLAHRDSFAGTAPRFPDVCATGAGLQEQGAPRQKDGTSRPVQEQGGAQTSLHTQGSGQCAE

B1: pFL249-H16 scFv clone (scFv, not shown: small tags and cut ends)
scFv: QVQLVQSGAELKKPGASVKLSCKASGYTFTTYWLQWVRQAPGQGLEWMGAIYPGPGNTKYTQKFKDRFTITADKSKSTAYMQLNSLKSEDSAVYYCARRGSRRGIAYWGQGTLVTVSAGGGGSGGGGSGGGGSNIVLTQSPASLAVSLGQRATISCRASESVDSYGRSFMHWYQQRPGQPPTLLIYLASNLESGVPVRFSGSGSRTDFTLTIDPVEADDAATYYCQQDNEDPYTFGGGTKLEIK
B2: pFL249-H114 scFv clone (scFv, not shown: small tags and cut ends)
scFv: B1 scFv with K12V, K13Q, A40T, F68V, K74T, K76T, K87R
B3: pFL249-H16u scFv clone (scFv, not shown: small tags and cut ends)
scFv: B1 scFv with K74T
B4: recombinant human RANKL (soluble, Gly136-Asp317, N-terminal 10 His, expressed in CHO cells) (ligand)
chain: T1 sequence
B5: G8 (antibody, human IgG2, kappa, V domains shown)
VH: QVQLVQSGAELVQPGASVKLSCKASGYTFTTYWLQWVRQTPGQGLEWMGAIYPGPGNTKYTQKFKDRVTITADTSTSTAYMQLNSLRSEDSAVYYCARRGSRRGIAYWGQGTLVTVSA
VL: NIVLTQSPASLSVSLGQRATISCRASESVDSYGRSFMHWYQQRPGQAPKLLIYLASNLESGVPARFSGSGSRTDFTLTISSVEAEDEATYYCQQDNEDPYTFGGGTKLEIKG
B6: G14 (antibody, human IgG2, kappa, V domains shown)
VH: B5 VH with L11V, V12K, Q13K, L20V, T40A, T74E, Q82E, N84S, S91T
VL: DIVMTQSPDSLAVSLGERATINCRASESVDSYGRSFMHWYQQKPGQAPRLLIYLASNLESGVPSRFSGSGSGTDFTLTINSLEAEDAATYYCQQDNEDPYTFGGGTKLEIKG
B7: G15 (antibody, human IgG2, kappa, V domains shown)
VH: B5 VH with L11V, V12K, Q13K, L20V, T40A, T74E, Q82E, N84S, S91T
VL: B5 VL with K49R
notes: expressed in CHO-S cells for Embodiments 23-25
B8: G10 (antibody, human IgG2, kappa, V domains shown)
VH: B5 VH with V12K, Q13K, T40A, V68F, T76K, R87K
VL: B5 VL with K49R
notes: 293F cells

Columns and labels:
[1] = biological target: RANK receptor on RAW264.7 cells (mouse (RAW264.7 cells)) (UniProt O35305); experiment: cell-based or functional assay
[2] = biological target: commercial hRANKL standard (R & D Systems) (human) (UniProt O14788); experiment: ELISA, commercial hRANKL standard coated 1 µg/ml, RANK-Fc titrated
[3] = biological target: T1, recombinant human RANKL (soluble, Gly136-Asp317, N-terminal 10 His, expressed in CHO cells) (human); experiment: ELISA, recombinant human RANKL coated 1 µg/ml, RANK-Fc titrated
[4] = biological target: T1, recombinant human RANKL (soluble, Gly136-Asp317, N-terminal 10 His, expressed in CHO cells) (human); experiment: ELISA, hRANKL coated 1 µg/ml, scFv supernatant, anti-c-myc detection
[5] = biological target: T2, RANK receptor on RAW264.7 cells; experiment: cell-based or functional assay
[6] = biological target: B4; experiment: cell-based or functional assay
[7] = biological target: B4; experiment: competitive ELISA, RANK-Fc coated, method of Example 18; antibody from CHO-S cells
[8] = biological target: B4; experiment: ELISA, hRANKL coated, method of Example 17; antibody from CHO-S cells
[9] = biological target: B4; experiment: competitive ELISA, RANK-Fc coated, antibody pre-incubated with 0.25 µg/ml hRANKL; Plate#02
[10] = biological target: B4; experiment: cell-based or functional assay; remark: listed apart in the source
[11] = biological target: B4; experiment: ELISA, hRANKL coated 1 µg/ml; concentration at 50% Bmax; Plate#02
[12] = biological target: B4; experiment: ELISA, hRANKL coated 1 µg/ml; concentration at 50% Bmax; Plate#03
[13] = biological target: B4; experiment: competitive ELISA, RANK-Fc coated, antibody pre-incubated with 0.25 µg/ml hRANKL; third plate (printed Plate#02)

OD450 [4] [OD450]	IC50 for inhibiting cell differentiation of RAW264.7 [6] [µg/mL]	IC50 [7] [µg/mL]	EC50 [8] [µg/mL]	IC50 (ng/ml) in RAW264.7 cells [10] [ng/mL]	Molecule	also measured
					commercial hRANKL standard (R & D Systems) (from UniProt O14788 140-317) (ligand)	EC50 of inducing RAW264.7 cells to differentiate into osteoclasts (TRAP activity, pNPP) [1]: 35.7 ng/ml
					RANK-Fc (R & D Systems) (Fc fusion)	EC50 [2]: 0.0056 µg/mL; EC50 [3]: 0.0109 µg/mL
1.2					B1	
1.2					B2	
1.2					B3	
					B4	EC50 of inducing RAW264.7 cells to differentiate into osteoclasts (TRAP activity, pNPP) [5]: 113 ng/ml
	0.329	0.37	0.00405	~573	B5	IC50 [9]: 0.38 µg/mL; EC50 [11]: 0.00276 µg/mL
	0.247	0.16	0.00209	~517	B6	EC50 [12]: 0.004 µg/mL; IC50 [13]: 0.12 µg/mL
	0.257	0.25	0.00356		B7	
				695	B8	IC50 [9]: 0.4 µg/mL; EC50 [11]: 0.00285 µg/mL
